In patent US20120028894A1:

Molecular target: Insulin-Degrading Enzyme (IDE), species not stated (Homo sapiens (Human)) (UniProt P14735)
Assay: cell-based or functional assay

insulin degradation by IDE without inhibitor, 16 hours at 37 C, insulin ELISA (% degradation): 60
Substance: Insulin isolated from bovine pancreas (SIGMA) (from UniProt P01317 85-105; P01317 25-54) (ligand)
